According to patent publication CN113956356A (FUZHOU MAIXIN BIOTECHNOLOGY DEV CO LTD, dated 2022):

Biological target: T1, 人PRL蛋白 (native prolactin in pituitary tumour tissue sections) (human, UniProt P01236 29-227)
T1 construct: Endogenous protein detected by immunohistochemistry in paraffin sections of pituitary tumours; also called 催乳素
T1 sequence (looked up): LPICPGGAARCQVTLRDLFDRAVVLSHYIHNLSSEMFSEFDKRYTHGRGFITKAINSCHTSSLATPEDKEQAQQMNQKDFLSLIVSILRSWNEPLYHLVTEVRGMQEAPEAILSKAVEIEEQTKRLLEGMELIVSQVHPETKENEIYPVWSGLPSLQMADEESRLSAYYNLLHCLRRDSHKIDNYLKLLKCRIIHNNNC
Experiment: immunohistochemistry on 9 pituitary tumour sections

B1: 抗PRL蛋白单克隆抗体(2C10D5H11) (antibody, V domains shown)
VH: QIQLVQSGPELKKPGETVKISCKASGYSFTNSAMSWVHQAPGKGLKWMGFINTKTGEPTYVEEFRGRFVFSLETSASTAYLQINNLKNEDTATYFCAKETDNSDDYWGQGTTLTVSS
VL: QIVLTQSPAIMSASPGEMVTLTCSASSSVSSSYLYWYQQKPGSSPKLWIYSTSNLASGVPARFSGSGSGTSYSLTISSMEAEDAASYFCHQWSSYPPTFGGGTKLEIK
notes: also called anti-PRL monoclonal antibody; antibody of hybridoma CGMCC NO.22311
B1: binds.
